The values below come from US7399745 (dated 2008).

Where no end group is shown, it is not given here.

Holding throughout (assay): competition
For assay [1], the target named is T1, GLP-1 receptor (rat), P32301.
T1 chain: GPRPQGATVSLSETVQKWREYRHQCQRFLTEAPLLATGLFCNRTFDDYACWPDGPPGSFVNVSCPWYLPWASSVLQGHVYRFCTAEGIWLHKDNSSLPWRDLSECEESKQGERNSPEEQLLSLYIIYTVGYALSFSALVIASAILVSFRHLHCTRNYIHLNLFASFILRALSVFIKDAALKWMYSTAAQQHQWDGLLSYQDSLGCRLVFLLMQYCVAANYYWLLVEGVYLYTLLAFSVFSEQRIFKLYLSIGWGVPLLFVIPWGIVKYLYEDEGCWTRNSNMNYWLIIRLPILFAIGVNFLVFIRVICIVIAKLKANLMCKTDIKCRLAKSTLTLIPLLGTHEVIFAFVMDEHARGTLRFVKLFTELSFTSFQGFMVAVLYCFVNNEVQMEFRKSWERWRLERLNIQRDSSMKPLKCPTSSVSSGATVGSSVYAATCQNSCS
The following applies: modification not given.

The target of assay [2] is T2, Glucagon receptor (rat), P30082.
T2 chain: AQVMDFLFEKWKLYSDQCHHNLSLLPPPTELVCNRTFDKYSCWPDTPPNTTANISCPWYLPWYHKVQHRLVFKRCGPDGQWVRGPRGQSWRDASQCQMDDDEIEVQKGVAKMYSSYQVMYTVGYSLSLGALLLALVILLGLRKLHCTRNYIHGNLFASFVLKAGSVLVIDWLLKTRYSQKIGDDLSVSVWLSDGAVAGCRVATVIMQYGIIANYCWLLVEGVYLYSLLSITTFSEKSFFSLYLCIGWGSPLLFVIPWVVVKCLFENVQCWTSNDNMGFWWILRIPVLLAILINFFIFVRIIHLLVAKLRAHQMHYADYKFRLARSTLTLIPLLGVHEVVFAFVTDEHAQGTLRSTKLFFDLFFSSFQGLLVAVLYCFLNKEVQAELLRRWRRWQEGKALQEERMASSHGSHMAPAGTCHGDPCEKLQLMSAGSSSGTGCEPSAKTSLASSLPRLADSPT
The following applies: modification not given.

Assay [3] concerns the target T3, Glucagon receptor (rat, UniProt P30082).
T3 chain: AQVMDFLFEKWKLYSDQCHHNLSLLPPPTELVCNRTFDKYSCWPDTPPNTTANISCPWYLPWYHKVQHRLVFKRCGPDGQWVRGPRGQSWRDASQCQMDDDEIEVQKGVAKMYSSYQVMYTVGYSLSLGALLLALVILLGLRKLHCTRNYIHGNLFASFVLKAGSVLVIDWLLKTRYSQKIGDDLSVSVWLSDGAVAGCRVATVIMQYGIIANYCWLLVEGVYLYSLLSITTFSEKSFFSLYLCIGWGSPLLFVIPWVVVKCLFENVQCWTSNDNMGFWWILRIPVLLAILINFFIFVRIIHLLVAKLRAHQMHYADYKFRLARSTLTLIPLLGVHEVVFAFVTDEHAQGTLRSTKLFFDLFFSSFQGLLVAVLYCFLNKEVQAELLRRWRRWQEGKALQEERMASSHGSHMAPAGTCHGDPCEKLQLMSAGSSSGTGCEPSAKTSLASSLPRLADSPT

Assay [4] concerns the target T4, GLP-1 receptor (rat, UniProt P32301).
T4 chain: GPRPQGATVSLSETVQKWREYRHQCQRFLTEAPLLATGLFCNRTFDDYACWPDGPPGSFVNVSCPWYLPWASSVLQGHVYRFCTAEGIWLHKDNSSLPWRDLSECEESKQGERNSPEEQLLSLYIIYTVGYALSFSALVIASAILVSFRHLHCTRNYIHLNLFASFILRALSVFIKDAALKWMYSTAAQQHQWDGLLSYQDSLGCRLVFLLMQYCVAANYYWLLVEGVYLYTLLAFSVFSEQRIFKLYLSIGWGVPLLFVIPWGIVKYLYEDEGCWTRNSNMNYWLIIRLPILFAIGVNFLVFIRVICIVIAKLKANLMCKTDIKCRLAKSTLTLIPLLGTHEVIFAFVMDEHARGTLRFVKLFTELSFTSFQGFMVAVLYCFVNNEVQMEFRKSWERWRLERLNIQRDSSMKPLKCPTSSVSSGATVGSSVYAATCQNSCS

With HSQGTFTSDYAKYLDARRAKEFIAWLVKGR [G87], the 50% inhibitory concentration (IC50) (as a rule, the concentration at which inhibition is half-maximal) in assay [1] stood at 98.6 nM; in assay [2] it was 620 nM. In assay [3], HSQGTFTSDYAKYLDARRAKEFIAWLVKGRC(PEG 22 kD) [G277] returned an IC50 of 65.5 nM.

For the molecule HSQGTFTSDYARYLDARRAKEFIAWLVKGR [G55], the half-maximal inhibitory concentration (IC50) was determined as 9.8 nM in assay [1] and 139 nM in assay [2].

With HSQGTFTSDYSKYLDSRRAQDFVQWLVKGR [G1], the IC50 in assay [1] was 6 nM; in assay [2], 6.6 nM. With HSQGTFTSDYAKYLDARRACEFIAWLVKGRG [G71], the IC50 in assay [1] worked out at 5.8 nM; in assay [2], 25.6 nM. Turning to HSQGTFTSDYAKYLDARRAKEFIAWLVCGRG [G74], the IC50 in assay [1] was determined as 4.4 nM; in assay [2] it was 21.7 nM. As for HSQGTFTSDYARYLDARRAKEFIAWLVRGRG [G82], the IC50 in assay [1] was 8.1 nM; in assay [2], 33.6 nM.

For HSQGTFTSDYAKYLDAKKAKEFIAWLVKGRG [G58], the 50% inhibitory concentration (IC50) in assay [1] amounted to 6.9 nM; in assay [2], 164 nM. For the molecule HSQGTFTSDYAKYLDAAKAKEFIAWLVKGRG [G60], the IC50 in assay [1] is 13.8 nM; in assay [2], 682 nM. As to HSQGTFTSDYAKYLDARRAKEFIAWLVKGRK [G88], the half-inhibitory concentration (IC50) in assay [1] was 109 nM; in assay [2], 350 nM.

Regarding HSQGTFTSDYAKYLDARRAKEFIAWLVKGCG [G76], the IC50 was 10.2 nM in assay [1] and 59.1 nM in assay [2]. Regarding HSQGTFTSDYAKYLDARRAKEFIAWLVKCRG [G75], the IC50 in assay [1] was found to be 7.7 nM; in assay [2] it was 54 nM. For HSQGTFTSDYAKYLDARRAKEFIAWLVKGRG [G51], the IC50 in assay [1] was 8.2 nM; in assay [2], 154 nM. Turning to HSQGTFTSDYARYLDARRAREFIAWLVKGRG [G84], the values for the IC50 in assay [1] and in assay [2] were 1.4 nM and 11.7 nM, respectively. Regarding HSQGTFTSDYAKYLDARRAKEFIAWLVKGRC [G77], the values for the IC50 in assay [1] and in assay [2] were 8.9 nM and 61.1 nM, respectively. Consider HSQGTFTSDYAKYLDARRAKEFIAWLVKGR [G27], for which the IC50 in assay [1] was determined as 2.2 nM; in assay [2], 69.3 nM. On to HSQGTFTSDYARYLDARRAREFIKWLVRGRC(PEG 43 kD) [G4185], for which the half-maximal inhibitory concentration (IC50) in assay [4] turned out to be 248 nM; in assay [3], 547 nM. Regarding HSQGTFTSDYARYLDARRAREFIKWLVRGRGK [G182], the half-inhibitory concentration (IC50) in assay [1] amounted to 12.6 nM; in assay [2], 220 nM. Regarding HSQGTFTSDYARYLDARRAREFIAWLVRGRGK [G85], the IC50 in assay [1] was 1.5 nM; in assay [2] it was 16.1 nM. On to HSQGTFTSDYARYLDAKKAKEFIAWLVKGRG [G59], for which the concentration for half-maximal inhibition (IC50) in assay [1] turned out to be 2.1 nM; in assay [2], 97.5 nM. Take HSQGTFTSDYARYLDAAKAKEFIAWLVKGRG [G61]: the 50% inhibitory concentration (IC50) in assay [1] was 10.6 nM; in assay [2] it was 232 nM. Regarding HSQGTFTSDYAKYLDAARAKEFIAWLVKGR [G57], the IC50 in assay [1] was determined as 14.7 nM; in assay [2] it was 178 nM. For the molecule HSQGTFTSDYSKYLEGQAAKEFIAWLVKGR [G5], the values for the IC50 in assay [1] and in assay [2] were 0.5 nM and 243 nM, respectively.

In the case of HSQGTFTSDYARYLDARRAREFIKWLVRGRG [G90], the values for the IC50 in assay [1] and in assay [2] were 25.4 nM and 726 nM, respectively.

As to HSQGTFTSDYARYLDARRAREFIKWLVRGRC [G185], the IC50 in assay [1] was determined as 4.5 nM; in assay [2], 48 nM. In the case of HSQGTFTSDYARYLDARRAREFIKWLVRGRG [G83], the half-maximal inhibitory concentration (IC50) in assay [1] is 3.2 nM; in assay [2], 28.6 nM.

Consider HSQGTFTSDYARYLDARRAKEFIKWLVRGRG [G183], for which the figures for the IC50 in assay [1] and in assay [2] were 159 nM and 663 nM, respectively.

HSQGTFTSDYARYLDARRAREFIKWLVRGRC(PEG 22 kD) [G2185]: the IC50 in assay [4] was 56.1 nM; in assay [3], 347 nM. With HSQGTFTSDYAAYLDARRAKEFIAWLVKGR [G56], the IC50 came out at 6.6 nM in assay [1] and 125 nM in assay [2].
